From the DeepSol protein solubility set

Test: soluble on expression in E. coli; label from the status in PepcDB or PDB records

Row | Sequence | soluble on expression in E. coli
1 | MGSDKIHHHHHHMPSFKTYPLESIGYDEALRKQFRLVDEITRHFKGSEFLSRGDLGVVPGLNRPRYTKRVEEILAAYFHAEAAMLVRGAGTAAIRMALHSYLTAGQTLLVHDAPIYPTTQTSIEMMSLRTIRADFNDLNHQQLPESPDGILVQYTRQKPDDSYDMAKVLAFFKQRYPSVPIVTDDNYAVMKVHKIGVELGASLSCFSTFKLLGPEGIGCIVGDKSAIQKLRSANYSGGSQVQGHEAIDVLRGLTYAPVALAAQANVVTELVERLNGNEIPGISEAYVANAQSKVLLVEFNQPIAEKVLKYTNDLGAAPNPVGAESKYEIAPMFYRVSGTFKKFDPNLLKTTIRINPYRCGADTIMRILAESVEKVMA | not soluble
2 | KTHEGHCYIIKAHTPIEEFNEQLNADFSDETYDTIGGIVLNKFGYLPQRGEVIIIDDFEFKVLNADSRRIKLLECLDKR | soluble
3 | MIKLSNITKVFHQGTRTIQALNNVSLHVPAGQIYGVIGASGAGKSTLIRCVNLLERPTEGSVLVDGQELTTLSESELTKARRQIGMIFQHFNLLSSRTVFGNVALPLELDNTPKDEVKRRVTELLSLVGLGDKHDSYPSNLSGGQKQRVAIARALASNPKVLLCDEATSALDPATTRSILELLKDINRRLGLTILLITHEMDVVKRICDCVAVISNGELIEQDTVSEVFSHPKTPLAQKFIQSTLHLDIPEDYQERLQAEPFTDCVPMLRLEFTGQSVDAPLLSETARRFNVNNNIISAQMDYAGGVKFGIMLTEMHGTQQDTQAAIAWLQEHHVKVEVLGYV | soluble
4 | NHYLQAEVVTAFLGLQHAAKRADFNLQPASTYRDFNRQMLIWNAKFNGKRKIHNDASKQIDITTLTDLAKIKAILRWSAVPGASRHHWGTEIDIFDPDLLPQGQHLQLEPWEYQSNGYFAPLIKWLHQHSASFGFYFPFDGIQNSQ | not soluble
5 | MGSSHHHHHHSSGRENLYFQGHMQWETVIGLEIHAQLATQSKIFSGSSTAFGAAPNTQASLVDLAMPGTLPVLNEEAVRMACLFGLAIDARIDRQNVFARKNYFYPDLPKGYQTSQMDHPIVGKGHLDITLEDGTTKRIGITRAHLEEDAGKSLHEDFQGMSGIDLNRAGTPLLEIVSEPDIRSAKEAVAYVKAIHALVRYLGICDGNMAEGSLRCDCNVSVRPKGQAEFGTRAEIKNVNSFRFIEKAINHEIQRQIELIEDGGKVVQETRLYDPNKDETRSMRGKEEANDYRYFPCPDLLPVVIEPEYLAKLREQLPELPVQKRERFESQYGLSAYDASVLSASREMADYFEKVQGICGDAKLAANWVMVELGSLLNKDGLEIEQSPVSAEQLGGMILRIKDNTISGKLAKMVFEAMANGEGSADQIIEAKGLKQVTDSGAIEKMLDEVLAANAEQVEQYRAADEAKRGKMFGFFVGQAMKASKGKANPQQVNELLKKKLEA | soluble
6 | MARYSLHAGHNSIVQGANYGNRKEHIMDRQVKDAVVAKLRALGHTVYDDTDEVGTTQAQNLNNIVSKTNSHDVDLVVSFHLNSYDTRANGVEVLYYDQQALSAKIAAQLSKDIGWSNRGAKERKDLYVLSNTKAPAILIELGFIDNEADMAKWNPDKIANSIVYALTGQSGGTTPPSKQNIIQSGAFSPYETPDVMGALTSLKMTANFILQSDGLTYFISEPTSDAQLKGMTDYLDRRGWWYEVK | not soluble
7 | MGSDKIHHHHHHMKKIAVLTSGGDAPGMNAAVRAVVRYGVRQGLEVIGVRRGYSGLIDGDFVKLEYKDVAGITEKGGTILRTSRCEEFKTEEGRELAAKQIKKHGIEGLVVIGGEGSLTGAHLLYEEHKIPVVGIPATIDNDIGLTDMCIGVDTCLNTVMDAVQKLKDTASSHERAFIVEVMGRHSGYIALMAGLVTGAEAIIVPEIPVDYSQLADRILEERRRGKINSIIIVAEGAASAYTVARHLEYRIGYETRITILGHVQRGGSPTAFDRRLALSMGVEAVDALLDGEVDVMIALQGNKFVRVPIMEALSTKKTIDKKLYEIAHMLS | not soluble
8 | MMPRMGPPAAARQDNPLHVSFRNPQWPPNFINKDNVLDYFCNQANAFYEMNSCNQQIRMQNIVNRTVEECLRTMPGIQYVLWYSQPPLFIICKQRRNNVTNVSPIAYYYVINGSVHQAPDMYSLVQSRLLGALEPLRNAFGEVTNYSRYNTAKGYYWEFKNKPNVKKREEEKKEDEEEKLEDRSTNFQKTRTMMLLNQLFSEMPAEDALEREEKEEVEEEEEETLKTEEPTTSTDEPKFAEPTARTTSKQ | not soluble
9 | MSEPAVVSILDTDLYKLTMLQAVLEHYPDAQVSYKYTNRSPKMALNQEAYNWLREQIRGLRNLHLLPEEEQWLRKNCPYLKESFYEFMHEFEFDPENSISLNYDSETKDLSIFIHGLWKNTIFYEIPLLALVSESYFKFVDKDWSPEGQFEKAYEKGKRLIRAGCAFTDFGTRRRRDPHTQEIVLQGLMKAQEDFKGPGSFLGTSNVYFAAKYNLNVSGTVAHEWYMGIAAITQNYKQANRIASLKWVQTFGTSLLIALTDTFSTDVFLKSFTANSADDLANVFHGVRQDSGCAEEYIEKVVKHYKSIGVDPSTKVIVHSDALNVDRCIELYKYCEKCGIKSAFGIGTNLTSDFQKVSNPSEVSKPMNIVIKLFSAEGTKAVKISDDIMKNTGDRDAVIQAKHQLCLPIA | soluble
10 | DHDFKYEVSANLSTVRNRVTSLGFGTDSYISGAYITNVGEEIGKFYGWVYDGIARTQADLDNHATQEGAQIGDCLYKDVSGPDGKPDGKVDANDQVVLGSGMPKINFGLNARFEYKRFDLSIATFGALNYHVSDDIHNSLNSCYGWGNKDVAMLDANRFSEDGSTYLSSVPRTYVTNSASLAWNDLFSDRKIQNAAYWKIANIELGYNFPNEWFGKYVSDVRFYVSAQNLHTFTGYKGYNVDYAGGTFTPGYNFCSYPTARTFMCGVHFTF | not soluble
11 | MSVLDALWEDRDVRFDLSAQQMKTRPGEVLIDCLDSIEDTKGNNGDRGRLLVTNLRILWHSLALSRVNVSVGYNCILNITTRTANSKLRGQTEALYILTKCNSTRFEFIFTNLVPGSPRLFTSVMAVHRAYETSKMYRDFKLRSALIQNKQLRLLPQEHVYDKINGVWNLSSDQGNLGTFFITNVRIVWHANMNDSFNVSIPYLQIRSIKIRDSKFGLALVIESSQQSGGYVLGFKIDPVEKLQESVKEINSLHKVYSASPIFGVDYEMEEKPQPLEALTVEQIQDDVEIDSDGHTDAFVAYFADGNKQQDREPVFSEELGLAIEKLKDGFTLQGLWEVMS | soluble
12 | MAVYRTVQVNFWQDDFVLDLTPEERYFYVYLLTCSKTTQCGIFPFPKRLAEMETGYNRETVDKLVQRFVDYGKILYDAETRELFVLNWLRYNPVTNTNVEKCVLRELKGVKNKEFVHMFLQKCVEEELNVPMLLAHFGMPSDLAVDDVEPVCEEAEEEEVIEEETGSRVFSFYEQHFGSLSPHTVEELSAWMEDLSEELVLKALQIAFENNKRTVAYVKGILRGWHGKGFTKVSEVEADTASFRKKDLSVSTGETEEFLARCEEWEKNAPSEEELQRFLAERGWRP | soluble
13 | MSLDKVTLLLNWYVYGEHAPFFYGKAKGLYAAEGIDLDIQEGRGSAVTIQAVAAGTVQFGYADVPTMIRAAAKGAPVVAVGVALQKSPMSVMGFSDKNIRKPEDIKGKIVATTPGDSMSQIWPLFLKQAGLRASDFQVVSGDAQTKLNAVANGRADLLLGYVMDQSMKLKDATGKDVRPIMFADYGIHMVSSGIITNKDLLKSNPDLVRRFMKATTAAFIGAEKDPGAAVDALLADLPKAGKRETLLEGFALTTPLYHTDETKGRPPFQVTDADMTSTVDLLIEYGGLEASAKDNTKSFYTRDYLPAAGNEGHHHHHH | soluble
14 | DGTCVNTNSQITANSQCVKSTATNCYIDNSQLVDTSICTRSQYSDANVKKSVTTDCNIDKSQVYLTTCTGSQYNGIYIRSSTTTGTSISGPGCSISTCTITRGVATPAAACKISGCSLSAM | soluble
15 | KDEIGVIGIDDAPFNKFDKEALIVGTYMRGNKLVDEISFKKIEKDGFDSTEKILKIVKDKHFTKINAIFLDGVTFGGFNIADIVKIYNETKIPVIAVMEKEPDLLKMKSALKKYFFDFPEKIEMLESFPKPEPFENIFIQCIGISFEDACKLIKKTRLRSKIPECLRISHLVGRGFLNME | not soluble
